From US10889805B2, “Intestinal epithelioid cells” (National Institutes of Biomedical Innovation, Health and …, priority 2015, dated 2021)

Columns and labels:
VILLIN = VILLIN expression by quantitative real-time RT-PCR in cells differentiating from human iPS cells to enterocyte-like cells; format: cell-based; conditions: compound added with BIO and DAPT, 5 days culture; versus control without the compounds; FIG. 3B
Description: (§1) The definitive endoderm cells generated from the human iPS cell line (Tic) by the method described in Example 1 above were further cultured for 15 days using the medium 3. During a period from day 4 to day 19 after the initiation of differentiation induction, BIO (5 μM) and DAPT (10 μM) were added to the culture system. Simultaneously with the addition of the BIO and the DAPT, the cells were further cultured for 5 days using the medium 3 supplemented with any one of phorbol-myristate-acetate (PMA), transforming growth factor β1 (TGEβ1), Wortmannin, Noggin, SB431542, Follistatin, EGF, R-spondin1, Pentagastrin, or Wnt3a (FIG. 2A and FIG. 3A).
(§2) With regard to the measurement of the enterocyte markers ANPEP and VILLIN, each of the enterocyte markers was measured by a quantitative real-time RT-PCR method using SYBR Green gene expression assays (APPLIED BIOSYSTEMS). […] Thus, high expressions of ANPEP and VILLIN were found when the cells were cultured in the system containing SB431542, EGF, or Wnt3a.
(§3) The quantitative real-time RT-PCR was performed by the following method. […] A quantitative real-time RT-PCR method using SYBR Green gene expression assays (APPLIED BIOSYSTEMS) was performed, and quantification was performed with STEPONEPLUS real-time PCR System (APPLIED BIOSYSTEMS).

ANPEP = ANPEP expression by quantitative real-time RT-PCR in cells differentiating from human iPS cells to enterocyte-like cells; format: cell-based; conditions: compound added with BIO and DAPT, 5 days culture; versus control without the compounds; FIG. 2B
Description: as §1, §2, §3

B1: Wnt3a (protein, UniProt P56704 19-352, looked up)
Protein Wnt-3a: SYPIWWSLAVGPQYSSLGSQPILCASIPGLVPKQLRFCRNYVEIMPSVAEGIKIGIQECQHQFRGRRWNCTTVHDSLAIFGPVLDKATRESAFVHAIASAGVAFAVTRSCAEGTAAICGCSSRHQGSPGKGWKWGGCSEDIEFGGMVSREFADARENRPDARSAMNRHNNEAGRQAIASHMHLKCKCHGLSGSCEVKTCWWSQPDFRAIGDFLKDKYDSASEMVVEKHRESRGWVETLRPRYTYFKVPTERDLVYYEASPNFCEPNPETGSFGTRDRTCNVSSHGIDGCDLLCCGRGHNARAERRREKCRCVFHWCCYVSCQECTRVYDVHTCK
notes: humoral factor added to the culture system
- expression of VILLIN (VILLIN): high value
- expression of ANPEP (ANPEP): high value
